According to patent publication EP4717714A1 (Shanghai Junshi Biosciences Co., Ltd., dated 2026):
Each block holds one binder with its values, some of them ahead of it.

Assays:
[1] = target: T1, Recombinant human PD-1 (prepared by Suzhou Junmeng Biopharm Co., Ltd. according to the sequence of NCBI … (human, UniProt Q15116 25-170, limits assumed)); assay: indirect ELISA on coated human PD-1; stability sample, 5°C, 4 week
T1 construct: Soluble recombinant protein used in BLI and coated in ELISA; also called antigen PD-1

[2] = target: T2, Recombinant human VEGFA (Sino Biological, catalog number 11066-HNAB) (human); assay: indirect ELISA on coated human VEGF; sample in human serum, 37°C, 4 week
T2 construct: also called VEGF antigen; Human/Cynomolgus VEGF/VEGFA/VEGF165 Protein
T2 chain: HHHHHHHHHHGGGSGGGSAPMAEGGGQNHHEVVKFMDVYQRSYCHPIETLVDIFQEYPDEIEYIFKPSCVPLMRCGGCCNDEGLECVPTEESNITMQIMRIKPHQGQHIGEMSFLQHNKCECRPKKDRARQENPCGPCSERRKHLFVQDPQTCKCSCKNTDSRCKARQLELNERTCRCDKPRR

[3] = target: T2, Recombinant human VEGFA (Sino …); assay: indirect ELISA, human VEGFA coated at 0.5 µg/mL (FIG. 7a)
[4] = target: T1, Recombinant human PD-1 (prepared by …); assay: indirect ELISA on coated human PD-1; sample in human serum, 37°C, 4 week
[5] = target: T2, Recombinant human VEGFA (Sino …); assay: indirect ELISA on coated human VEGFA, relative to Avastin control
[6] = target: T2, Recombinant human VEGFA (Sino …); assay: BLI (Octet RED96e), antibody captured at 5 µg/mL, VEGFA at 50 and 25 nM
[7] = target: T2, Recombinant human VEGFA (Sino …); assay: competitive ELISA, VEGFA coated, competitor biotinylated VEGFR2 at 0.3 µg/mL (FIG. 8a)
[8] = target: Human PD-1 on the cell surface (Jurkat PD-1 effector cells, Promega); CD4 T cells in the mixed lymphocyte … (human, UniProt Q15116 25-288); assay: cell-based or functional assay
[9] = target: T2, Recombinant human VEGFA (Sino …); assay: cell-based or functional assay
[10] = target: T1, Recombinant human PD-1 (prepared by …); assay: indirect ELISA on coated human PD-1, relative to TAB001 (JS001) control
[11] = target: T2, Recombinant human VEGFA (Sino …); assay: indirect ELISA on coated human VEGF; sample in human serum, 37°C, 0 week
[12] = target: T1, Recombinant human PD-1 (prepared by …); assay: competitive ELISA, PD-1 coated, competitor Biotin-PD-L1 hFc at 4.0 µg/mL (FIG. 9a)
[13] = target: T2, Recombinant human VEGFA (Sino …); assay: indirect ELISA on coated human VEGF; sample in human serum, 37°C, 2 week
[14] = target: T1, Recombinant human PD-1 (prepared by …); assay: indirect ELISA on coated human PD-1; sample in human serum, 37°C, 2 week
[15] = target: T2, Recombinant human VEGFA (Sino …); assay: indirect ELISA on coated human VEGF; stability sample, 5°C, 4 week
[16] = target: T2, Recombinant human VEGFA (Sino …); assay: indirect ELISA on coated human VEGF; stability sample, 5°C, 2 week
[17] = target: T1, Recombinant human PD-1 (prepared by …); assay: indirect ELISA, human PD-1 coated at 0.3 µg/mL (FIG. 6a)
[18] = target: T2, Recombinant human VEGFA (Sino …); assay: BLI (Octet RED96e), told of the group
[19] = target: T1, Recombinant human PD-1 (prepared by …); assay: BLI (Octet RED96e), antibody captured at 5 µg/mL, PD-1 at 210 and 70 nM
[20] = target: T1, Recombinant human PD-1 (prepared by …); assay: indirect ELISA on coated human PD-1; sample in human serum, 37°C, 0 week
[21] = target: T2, Recombinant human VEGFA (Sino …); assay: indirect ELISA on coated human VEGF; stability sample, 5°C, 0 week
[22] = target: T1, Recombinant human PD-1 (prepared by …); assay: indirect ELISA on coated human PD-1; stability sample, 5°C, 0 week
[23] = target: T2, Recombinant human VEGFA (Sino …); assay: competitive ELISA against VEGFR2 on coated VEGFA, relative to Avastin control
[24] = target: T1, Recombinant human PD-1 (prepared by …); assay: competitive ELISA against PD-L1 hFc on coated PD-1, relative to TAB001 (JS001) control
[25] = target: T2, Recombinant human VEGFA (Sino …); assay: competitive ELISA, VEGFA coated, competitor biotinylated VEGFR2 at 0.3 µg/mL (FIG. 8b)
[26] = target: T1, Recombinant human PD-1 (prepared by …); assay: competitive ELISA, PD-1 coated, competitor Biotin-PD-L1 hFc at 4.0 µg/mL (FIG. 9b)
[27] = target: T2, Recombinant human VEGFA (Sino …); assay: indirect ELISA, human VEGFA coated at 0.5 µg/mL (FIG. 7b)
[28] = target: T1, Recombinant human PD-1 (prepared by …); assay: indirect ELISA, human PD-1 coated at 0.3 µg/mL (FIG. 6b)

- Binding activity (%), PD-1 end [1]: 97%
- Binding activity (%), VEGF end [2]: 79%
- EC50 [3]: 2.05 nM
- Binding activity (%), PD-1 end [4]: 82%
- Relative binding activity (%) [5]: 175%
- Kd [6]: < 0.0186 nM
- koff [6]: < 1e-05 s⁻¹
- kon [6]: 538000 M⁻¹ s⁻¹
- IC50 [7]: 679 nM
- EC50, PD-1/PD-L1 luciferase reporter gene system (Jurkat PD-1 / CHO PD-L1) [8]: 11.9 nM
- IC50, VEGFA-induced proliferation of HUVEC cells [9]: 81.1 nM
- Relative binding activity (%) [10]: 52%
- Binding activity (%), VEGF end [11]: 98%
- IC50 [12]: 293 nM
- Binding activity (%), VEGF end [13]: 96%
- Binding activity (%), PD-1 end [14]: 95%
- Binding activity (%), VEGF end [15]: 81%
- Binding activity (%), VEGF end [16]: 104%
- EC50 [17]: 6.93 nM
- Kd [18]: < 0.5 nM
- Kd [19]: 1.73 nM
- koff [19]: 7.73e-05 s⁻¹
- kon [19]: 44800 M⁻¹ s⁻¹
- Binding activity (%), PD-1 end [20]: 121%
- Binding activity (%), VEGF end [21]: 99%
- Binding activity (%), PD-1 end [22]: 105%
- Relative binding activity (%) [23]: 97%
- Relative binding activity (%) [24]: 46%
B1: Bispecific antibody molecule 23 (bispecific antibody, human IgG4 S228P, kappa)
light: DVVMTQSPLSLPVTLGQPASISCRSSQSIVHSNGNTYLEWYLQKPGQSPQLLIYKVSNRFSGVPDRFSGSGSGTDFTLKISRVEAEDVGVYYCFQGSHVPLTFGQGTKLEIKRTVAAPSVFIFPPSDEQLKSGTASVVCLLNNFYPREAKVQWKVDNALQSGNSQESVTEQDSKDSTYSLSSTLTLSKADYEKHKVYACEVTHQGLSSPVTKSFNRGEC
heavy: not shown
notes: expressed in CHO-K1; also called Antibody 23; antibody 23 (IgG4)

- Binding activity (%), PD-1 end [1]: 86%
- Binding activity (%), VEGF end [2]: 95%
- EC50 [3]: 13.2 nM
- Binding activity (%), PD-1 end [4]: 89%
- Relative binding activity (%) [5]: 27%
- Kd [6]: 0.191 nM
- koff [6]: 7.92e-05 s⁻¹
- kon [6]: 414000 M⁻¹ s⁻¹
- IC50 [7]: 1080 nM
- EC50, PD-1/PD-L1 luciferase reporter gene system (Jurkat PD-1 / CHO PD-L1) [8]: 8.17 nM
- IC50, VEGFA-induced proliferation of HUVEC cells [9]: 88 nM
- Relative binding activity (%) [10]: 25%
- Binding activity (%), VEGF end [11]: 104%
- IC50 [12]: 243 nM
- Binding activity (%), VEGF end [13]: 81%
- Binding activity (%), PD-1 end [14]: 63%
- Binding activity (%), VEGF end [15]: 102%
- Binding activity (%), VEGF end [16]: 85%
- EC50 [17]: 14.6 nM
- Kd [18]: < 0.5 nM
- Kd [19]: 1.21 nM
- koff [19]: 9.38e-05 s⁻¹
- kon [19]: 77600 M⁻¹ s⁻¹
- Binding activity (%), PD-1 end [20]: 106%
- Binding activity (%), VEGF end [21]: 100%
- Binding activity (%), PD-1 end [22]: 94%
- Relative binding activity (%) [23]: 61%
- Relative binding activity (%) [24]: 55%
B2: Bispecific antibody molecule 24 (bispecific antibody, human IgG4 S228P, kappa)
light: B1 light
heavy: not shown
notes: Anti-PD-1 IgG4 (JS001) with the anti-VEGF VHH at the C-terminus of each heavy chain; also called Antibody 24; antibody 24 (IgG4)

- Binding activity (%), PD-1 end [1]: 107%
- Binding activity (%), VEGF end [2]: 78%
- Binding activity (%), PD-1 end [4]: 83%
- Relative binding activity (%) [5]: 53%
- Kd [6]: 0.0521 nM
- koff [6]: 4.24e-05 s⁻¹
- kon [6]: 815000 M⁻¹ s⁻¹
- IC50 [25]: 3560 nM
- EC50, PD-1/PD-L1 luciferase reporter gene system (Jurkat PD-1 / CHO PD-L1) [8]: 16.9 nM
- IC50, VEGFA-induced proliferation of HUVEC cells [9]: 104 nM
- Relative binding activity (%) [10]: 77%
- Binding activity (%), VEGF end [11]: 101%
- Binding activity (%), VEGF end [13]: 86%
- Binding activity (%), PD-1 end [14]: 86%
- Binding activity (%), VEGF end [15]: 104%
- Binding activity (%), VEGF end [16]: 92%
- Kd [18]: < 0.5 nM
- Kd [19]: 0.864 nM
- koff [19]: 5.57e-05 s⁻¹
- kon [19]: 64400 M⁻¹ s⁻¹
- IC50 [26]: 297 nM
- EC50 [27]: 6.62 nM
- Binding activity (%), PD-1 end [20]: 93%
- Binding activity (%), VEGF end [21]: 97%
- Binding activity (%), PD-1 end [22]: 95%
- Relative binding activity (%) [23]: 85%
- Relative binding activity (%) [24]: 86%
- EC50 [28]: 23.8 nM
B3: Bispecific antibody molecule 27 (bispecific antibody, human IgG4 S228P, kappa)
light: B1 light
heavy: not shown
notes: Anti-PD-1 IgG4 (JS001) with the anti-VEGF VHH inserted between CH1 and the hinge of each heavy chain; also called Antibody 27; antibody 27 (IgG4)

- IC50 [12]: 135 nM
- EC50 [17]: 3.6 nM
- Kd [19]: 0.584 nM
- koff [19]: 3.93e-05 s⁻¹
- kon [19]: 67300 M⁻¹ s⁻¹
- IC50 [26]: 255 nM
- EC50 [28]: 18.3 nM
B4: JS001 (recombinant humanized anti-PD-1 monoclonal antibody reference article, Toripalimab) (antibody, human IgG4 S228P, kappa, V domains shown)
VH: QGQLVQSGAEVKKPGASVKVSCKASGYTFTDYEMHWVRQAPIHGLEWIGVIESETGGTAYNQKFKGRVTITADKSTSTAYMELSSLRSEDTAVYYCAREGITTVATTYYWYFDVWGQGTTVTVSS
VL: DVVMTQSPLSLPVTLGQPASISCRSSQSIVHSNGNTYLEWYLQKPGQSPQLLIYKVSNRFSGVPDRFSGSGSGTDFTLKISRVEAEDVGVYYCFQGSHVPLTFGQGTKLEIKR
notes: also called TAB001; anti-PD-1 monoclonal antibody JS001
